Results: patent US20220064279A1 (AstraZeneca / MedImmune, published 2022)

Target: endogenous LIF of U-251 glioma cells (human, UniProt P15018 23-202)
Experiment: cell-based or functional assay

endogenous LIF of U-251 glioma cells, sequence (P15018 23-202 limits assumed): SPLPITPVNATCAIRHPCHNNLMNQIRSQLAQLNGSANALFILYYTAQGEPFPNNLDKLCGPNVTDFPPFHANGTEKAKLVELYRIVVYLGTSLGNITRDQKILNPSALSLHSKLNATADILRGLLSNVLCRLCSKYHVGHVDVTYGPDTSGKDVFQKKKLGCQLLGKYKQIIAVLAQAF

B1: h5D8 (humanized 5D8, H2L2) (antibody, V domains shown)
VH: QVQLQESGGGLVKPGGSLRLSCAASGFTFSHAWMHWVRQAPGKGLEWVGQIKAKSDDYATYYAESVKGRFTISRDDSKNTLYLQMNSLKTEDTAVYYCTCWEWDLDFWGQGTMVTVSS
VL: DIVMTQTPLSSPVTLGQPASISCRSSQSLLDSDGHTYLNWLQQRPGQPPRLLIYSVSNLESGVPDRFSGSGAGTDFTLKISRVEAEDVGVYYCMQATHAPPYTFGQGTKLEIK
IC50 for biological inhibition (pSTAT3, MSD assay, serum starved U-251 cells): 490 picomolar
